Data published in article PMC12711917.

Biological target: 5-TAMRA-labeled human CaV1.2-IQ peptide (human)
Sequence (Q13936 1659-1692): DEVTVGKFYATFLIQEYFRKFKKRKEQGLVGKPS

For “calmodulin, wild type (from UniProt P0DP23 1-149) (natural protein)”, the f300 (calcium-dependent inactivation of the CaV1.2 channel; whole-cell voltage clamp of HEK293 cells co-transfected with human CaV1.2 α1C, β2a, α2δ and calmodulin) was 0.57.
